Reference: patent CN112409485A (BEIJING NIUAMBO BIOTECHNOLOGY CO LTD, dated 2021)

T1: Human CEACAM6 Protein, Human, Recombinant (His Tag) (human, UniProt P40199 35-320)
T1 construct: Bought antigen; also called CEACAM6抗原; CEACAM6蛋白; not shown: His tag
T1 sequence (looked up): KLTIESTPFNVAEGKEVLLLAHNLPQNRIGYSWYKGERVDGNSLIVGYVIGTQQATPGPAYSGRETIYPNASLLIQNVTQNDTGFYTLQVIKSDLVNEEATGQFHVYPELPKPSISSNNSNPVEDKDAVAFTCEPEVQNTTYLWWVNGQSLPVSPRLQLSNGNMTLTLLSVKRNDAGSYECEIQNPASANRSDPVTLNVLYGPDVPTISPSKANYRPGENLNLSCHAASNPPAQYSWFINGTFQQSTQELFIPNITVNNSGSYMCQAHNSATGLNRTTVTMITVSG

B1: 单域抗体NBC36 (VHH)
VHH: QVQLVESGGGLVQAGGSLRLSCVVSGIDFRINNMGWYRQAPGTQRELVASVTPGRNTNYADSVKGRFTISRDNAQNTVYLQMNSLQPEDTAVYSCSAYGPSGAYWGQGTQVTVSS
notes: Alpaca VHH
B2: 单域抗体NBC25 (VHH)
VHH: QVKLEESGGGLVQPGGSLRLSCAASGQTARAGIMGWFRQAPGKEREFVAAMGRSGASAYYQDSVQGRFTISRDNAQNTVFLQMNSLKPEDTAVYHCAAGNPIALTTAQYYDYWGQGTQVTVSS
notes: Alpaca VHH
B3: 单域抗体NBC10 (VHH)
VHH: QVKLEESGGGLVQAGGSLRLSCAASGRTFSNYAMGWFREAPGKEREFVGSSSRSGSFSYLVDSVKGRFTIFRDNDKNTVYLQMNSLKPEDTAVYYCAAQTAIRAGVRDDYDFWGQGAQVTVSS
notes: Alpaca VHH

Target: T1, Human CEACAM6 Protein, Human, …
Assay: phage ELISA, phage-displayed VHH on coated CEACAM6

Binding result, binds:
B1
B2
B3
